Results from paper PMC6224492 (2018).
Each block holds one molecule with its values, some of them ahead of it. The star is where a group is joined. FITC = O=C1OC2(c3ccc(O)cc3Oc3cc(O)ccc32)c2ccc(NC(=S)*)cc21; Ahx = NCCCCCC(=O)O

How the values were obtained:
[1] = biological target: full-length PPARγ (isoform 2), delipidated, no ligand (human) (UniProt P37231); assay: FP
[2] = biological target: T1, full-length PPARγ with GW1929 (Homo sapiens); assay: FP; GW1929
T1 chain: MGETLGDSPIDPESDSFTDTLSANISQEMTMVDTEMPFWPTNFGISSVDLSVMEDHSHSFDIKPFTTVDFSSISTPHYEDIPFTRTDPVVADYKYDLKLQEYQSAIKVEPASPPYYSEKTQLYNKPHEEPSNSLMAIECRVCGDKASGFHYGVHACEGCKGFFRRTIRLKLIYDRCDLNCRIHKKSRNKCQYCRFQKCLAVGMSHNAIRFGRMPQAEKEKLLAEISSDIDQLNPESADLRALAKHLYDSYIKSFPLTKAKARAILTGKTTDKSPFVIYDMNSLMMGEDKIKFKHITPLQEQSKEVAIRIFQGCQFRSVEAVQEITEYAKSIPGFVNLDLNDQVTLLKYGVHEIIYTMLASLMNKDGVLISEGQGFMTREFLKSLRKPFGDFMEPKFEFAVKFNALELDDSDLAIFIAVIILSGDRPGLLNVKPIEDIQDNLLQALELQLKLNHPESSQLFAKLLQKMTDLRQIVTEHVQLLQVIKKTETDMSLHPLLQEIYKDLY

Kd [1]: 7.4 µM
Molecule: FITC-labeled NCoR1 corepressor peptide (residues 2256-2278)

Kd [2]: 9 µM
B1: FITC-labeled NCoR1 corepressor peptide (residues 2256-2278) (peptide)
peptide: {FITC-Ahx}-DPASNLGLEDIIRKALMGSFDDK-NH2
